The target of experiment [1] is T1, MSPS, purified recombinant human Protein S obtained from FUT8 knockout CHO/DG44 cells (human, UniProt P07225 42-676, gamma-carboxylated glutamic acid (Gla) in the Gla domain; complex type N-glycoside-linked sugar chains without fucose (fucose not detected)).
T1 construct: It differs from KCPS only in glycosylation (no core fucose); also called fucose-free recombinant Protein S
T1 sequence: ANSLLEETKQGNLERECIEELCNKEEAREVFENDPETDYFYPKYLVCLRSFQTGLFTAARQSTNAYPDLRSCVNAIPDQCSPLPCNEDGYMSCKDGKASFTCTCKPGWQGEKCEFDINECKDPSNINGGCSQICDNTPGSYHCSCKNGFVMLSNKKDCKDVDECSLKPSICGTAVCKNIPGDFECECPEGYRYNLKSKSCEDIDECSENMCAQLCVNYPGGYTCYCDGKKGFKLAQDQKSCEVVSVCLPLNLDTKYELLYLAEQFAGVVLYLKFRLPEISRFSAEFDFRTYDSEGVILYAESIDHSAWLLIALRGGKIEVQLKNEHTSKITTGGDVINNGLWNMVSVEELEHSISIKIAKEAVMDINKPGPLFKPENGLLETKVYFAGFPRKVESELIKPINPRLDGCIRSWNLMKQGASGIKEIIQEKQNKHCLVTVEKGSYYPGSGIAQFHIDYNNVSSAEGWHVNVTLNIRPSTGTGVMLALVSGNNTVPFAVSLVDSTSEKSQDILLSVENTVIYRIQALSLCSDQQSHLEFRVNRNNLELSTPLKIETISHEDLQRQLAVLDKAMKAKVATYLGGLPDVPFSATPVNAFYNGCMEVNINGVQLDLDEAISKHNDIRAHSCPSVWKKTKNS
Briefly: SPR (Biacore), S100A8/A9 immobilised on C1 chip, MSPS as analyte. The protocol: Using an amine coupling kit (manufactured by Biacore), recombinant human HMGB-1 (manufactured by R&D Systems), recombinant human Mac-1 heterodimer (αmβ2 integrin, CD11b/CD18; manufactured by R&D Systems), and recombinant human S100A8/A9 (manufactured by R&D Systems) were respectively immobilized at 200 RU, 1200 RU, and 400 RU on flow cells of a Series S C1 sensor chip (manufactured by Biacore). The measurement was carried out in the same manner as in Example 5, except that the recombinant human RAGE-Fc fusion protein (manufactured by R&D Systems) diluted to given concentrations of 50000, 5000 or 500 ng/mL was used as an analyte.
Next, using the same sensor chip, the same binding experiment was carried out using a recombinant human RAGE-Fc fusion protein (5000 ng/mL) mixed with MSPS (final concentration of 50000 and 5000 μg/mL), as an analyte.

Experiment [2] has as its target T2, recombinant human RAGE-Fc fusion protein (manufactured by R&D Systems) (human, UniProt Q15109 24-344).
T2 construct: Bought fusion protein; also called recombinant soluble RAGE-human IgG1 Fc chimeric protein; not shown: Fc of human IgG1
Briefly: SPR (Biacore), S100A8/A9 immobilised on C1 chip, RAGE-Fc (50000, 5000, 500 ng/mL) as analyte. The text has this: (§1) Using an amine coupling kit (manufactured by Biacore), human plasma-derived Protein S (manufactured by Calbiochem), human plasma-derived complement C4 binding protein (C4BP; manufactured by BioMed), and human plasma-derived complement C1 inhibitor Berinert P (manufactured by CSL Behring) were respectively immobilized on flow cells of a CM5 sensor chip (manufactured by Biacore). An immobilized amount of the ligand protein on the respective flow cells was set to the range of 2400 to 3600 resonance units (hereinafter referred to as “RU”). The complement C4 binding protein and the complement C1 inhibitor are known as plasma glycoproteins having the anti-inflammatory effect. Then, a recombinant human RAGE-Fc fusion protein (manufactured by R&D Systems) diluted to given concentrations (50000, 25000, 12500, 6250, 3125, and 1562 ng/mL) using HBS-EP+buffer (manufactured by Biacore), as an analyte, was allowed to run and bind to the ligand-immobilized flow cells at a temperature of 25° C., a flow rate of 5 μL/min, association time of 140 seconds, and dissociation time of 240 seconds. The chip was regenerated by a flow of an aqueous glycine solution (pH 1.5) (manufactured by Biacore) for 60 seconds. […]

Experiment [3] deals with T1, MSPS, purified recombinant human …. Briefly: SPR (Biacore), HMGB-1 immobilised on C1 chip, MSPS as analyte.
The target in experiment [4] is T2, recombinant human RAGE-Fc fusion …. Briefly: SPR (Biacore), HMGB-1 immobilised on C1 chip, RAGE-Fc (50000, 5000, 500 ng/mL) as analyte.
Source text: as §1

Experiment [5] deals with T3, human plasma-derived Protein S (manufactured by Calbiochem) (human, UniProt P07225 42-676, gamma-carboxylated glutamic acid (Gla) in the N-terminal Gla domain; complex type N-glycoside-linked sugar chains (Asn458, Asn468, Asn489), partly with core alpha1,6-fucose (Fuc 0.26 per Man 3.00)).
T3 construct: Bought protein purified from human plasma; also called native Protein S; Human plasma Protein S
T3 sequence: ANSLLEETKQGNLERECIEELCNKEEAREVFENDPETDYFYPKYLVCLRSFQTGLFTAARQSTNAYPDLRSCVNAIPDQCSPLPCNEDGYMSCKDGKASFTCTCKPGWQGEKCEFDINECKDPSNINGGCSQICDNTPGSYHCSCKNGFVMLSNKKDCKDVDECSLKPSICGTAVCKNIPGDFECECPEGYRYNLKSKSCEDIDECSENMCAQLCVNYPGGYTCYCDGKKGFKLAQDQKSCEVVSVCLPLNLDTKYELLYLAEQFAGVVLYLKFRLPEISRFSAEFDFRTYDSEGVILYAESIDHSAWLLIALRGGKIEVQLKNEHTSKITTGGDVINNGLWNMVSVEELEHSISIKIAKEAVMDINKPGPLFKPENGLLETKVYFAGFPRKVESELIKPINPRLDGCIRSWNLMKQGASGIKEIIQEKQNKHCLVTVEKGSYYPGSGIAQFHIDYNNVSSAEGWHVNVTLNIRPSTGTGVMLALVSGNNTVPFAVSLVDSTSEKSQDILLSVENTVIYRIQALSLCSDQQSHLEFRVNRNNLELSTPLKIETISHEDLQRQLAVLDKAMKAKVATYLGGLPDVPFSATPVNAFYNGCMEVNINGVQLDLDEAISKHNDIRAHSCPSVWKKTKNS
Briefly: SPR (Biacore), plasma Protein S immobilised on CM5, E-selectin Fc as analyte.

Experiment [6] has as its target T4, human plasma-derived complement C4 binding protein (C4BP; manufactured by BioMed) (human, UniProt P04003 49-597; P20851 18-252).
T4 construct: mature; Bought plasma protein; also called Human C4BP
T4 sequence (looked up) 1: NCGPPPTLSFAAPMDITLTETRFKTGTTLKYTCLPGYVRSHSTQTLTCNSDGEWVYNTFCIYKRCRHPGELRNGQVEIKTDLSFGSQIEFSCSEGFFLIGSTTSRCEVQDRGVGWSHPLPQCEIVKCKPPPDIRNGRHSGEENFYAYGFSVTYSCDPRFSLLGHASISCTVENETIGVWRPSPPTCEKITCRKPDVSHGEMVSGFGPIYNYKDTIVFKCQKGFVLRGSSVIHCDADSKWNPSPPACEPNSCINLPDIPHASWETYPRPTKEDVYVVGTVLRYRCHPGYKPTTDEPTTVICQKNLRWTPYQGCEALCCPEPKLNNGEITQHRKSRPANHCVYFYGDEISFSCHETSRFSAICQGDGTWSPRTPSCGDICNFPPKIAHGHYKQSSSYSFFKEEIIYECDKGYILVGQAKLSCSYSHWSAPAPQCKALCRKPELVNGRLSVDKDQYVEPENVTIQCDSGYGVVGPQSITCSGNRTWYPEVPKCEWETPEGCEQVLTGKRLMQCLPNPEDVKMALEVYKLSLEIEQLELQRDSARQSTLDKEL
T4 sequence (looked up) 2: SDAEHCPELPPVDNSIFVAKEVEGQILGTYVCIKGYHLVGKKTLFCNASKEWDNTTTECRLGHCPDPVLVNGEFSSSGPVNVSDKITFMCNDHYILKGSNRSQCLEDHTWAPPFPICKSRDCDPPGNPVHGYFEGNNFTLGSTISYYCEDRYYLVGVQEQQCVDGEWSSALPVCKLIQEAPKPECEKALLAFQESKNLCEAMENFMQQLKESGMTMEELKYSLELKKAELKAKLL
Briefly: SPR (Biacore T100), KCPS immobilised on CM5, C4BP as analyte. The text has this: Using an amine coupling kit (manufactured by Biacore), human plasma-derived Protein S (manufactured by Calbiochem), and recombinant human Protein S prepared in Example 4, MSPS and KCPS were respectively immobilized on flow cells of a CM5 sensor chip (manufactured by Biacore). An immobilized amount of the ligand protein on the respective flow cells was set to the range of 1500 to 2000 RU. Then, an anti-human Protein S antibody C-17 (manufactured by Santa Cruz) (FIG. 7), or a human plasma-derived complement C4 binding protein (manufactured by BioMed) diluted to given concentrations (50000, 25000, 12500, 6250, 3125, and 1562 ng/mL) using HBS-EP+buffer (manufactured by Biacore), as an analyte, was allowed to run and bind to the ligand-immobilized flow cells at a temperature of 25° C., a flow rate of 5 μL/min, association time of 140 seconds, and dissociation time of 240 seconds. The anti-human Protein S antibody C-17 and the human plasma-derived complement C4 binding protein are known to bind to the sex hormone-binding globulin-like domain (SHBG domain) at the carboxyl terminal of Protein S. The chip was regenerated by a flow of an aqueous glycine solution (pH 1.5) (manufactured by Biacore) for 60 seconds. Dissociation constants calculated by analysis of the obtained data using Biacore T100 evaluation software ver 1.1 (manufactured by Biacore) are given in Table 2 below.

The values below come from patent US20100162418A1 (Kyowa Kirin, published 2010).

T2 sequence (Q15109 24-344 limits assumed): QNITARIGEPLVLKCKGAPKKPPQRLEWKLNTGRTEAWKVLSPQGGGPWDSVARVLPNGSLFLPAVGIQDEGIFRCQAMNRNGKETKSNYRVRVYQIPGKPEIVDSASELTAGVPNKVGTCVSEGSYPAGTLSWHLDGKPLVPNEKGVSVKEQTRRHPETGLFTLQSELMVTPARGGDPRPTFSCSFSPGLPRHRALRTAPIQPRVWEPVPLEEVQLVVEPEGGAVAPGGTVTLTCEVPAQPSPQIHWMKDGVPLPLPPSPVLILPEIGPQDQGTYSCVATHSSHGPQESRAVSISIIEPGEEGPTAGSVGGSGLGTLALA

B1: recombinant human S100A8/A9 (manufactured by R&D Systems) (ligand)
chain 1: MLTELEKALNSIIDVYHKYSLIKGNFHAVYRDDLKKLLETECPQYIRKKGADVWFKELDINTDGAVNFQEFLILVIKMGVAAHKKSHEESHKE
chain 2: MTCKMSQLERNIETIINTFHQYSVKLGHPDTLNQGEFKELVRKDLQNFLKKENKNEKVIEHIMEDLDTNADKQLSFEEFIMLMARLTWASHEKMHEGDEGPGHHHKPGLGEGTP
notes: Bought
For the molecule B1, the results for the binding result in experiment [1] and in experiment [2] were “no binding” and “binds”, respectively.

B2: recombinant human HMGB-1 (manufactured by R&D Systems) (ligand, UniProt P09429 1-215, looked up)
chain: MGKGDPKKPRGKMSSYAFFVQTCREEHKKKHPDASVNFSEFSKKCSERWKTMSAKEKGKFEDMAKADKARYEREMKTYIPPKGETKKKFKDPNAPKRPPSAFFLFCSEYRPKIKGEHPGLSIGDVAKKLGEMWNNTAADDKQPYEKKAAKLKEKYEKDIAAYRAKGKPDAAKKGVVKAEKSKKKKEEEEDEEDEEDEEEEEDEEDEDEEEDDDDE
Take B2: the figures for the binding result in experiment [3] and in experiment [4] were “no binding” and “binds”, respectively.

B3: human E-selectin Fc fusion protein (manufactured by R&D systems) (Fc fusion, UniProt P16581 22-556, looked up)
chain: WSYNTSTEAMTYDEASAYCQQRYTHLVAIQNKEEIEYLNSILSYSPSYYWIGIRKVNNVWVWVGTQKPLTEEAKNWAPGEPNNRQKDEDCVEIYIKREKDVGMWNDERCSKKKLALCYTAACTNTSCSGHGECVETINNYTCKCDPGFSGLKCEQIVNCTALESPEHGSLVCSHPLGNFSYNSSCSISCDRGYLPSSMETMQCMSSGEWSAPIPACNVVECDAVTNPANGFVECFQNPGSFPWNTTCTFDCEEGFELMGAQSLQCTSSGNWDNEKPTCKAVTCRAVRQPQNGSVRCSHSPAGEFTFKSSCNFTCEEGFMLQGPAQVECTTQGQWTQQIPVCEAFQCTALSNPERGYMNCLPSASGSFRYGSSCEFSCEQGFVLKGSKRLQCGPTGEWDNEKPTCEAVRCDAVHQPPKGLVRCAHSPIGEFTYKSSCAFSCEEGFELHGSTQLECTSQGQWTEEVPSCQVVKCSSLAVPGKINMSCSGEPVFGTVCKFACPEGWTLNGSAARTCGATGHWSGLLPTCEAPTESNIP
notes: Fc-bearing control protein; bought; not shown: Fc, described as similar to the Fc of human IgG1 contained in the RAGE-Fc fusion protein
As to B3, the binding result in experiment [5] is “no binding”.

B4: KCPS, purified recombinant human Protein S obtained from CHO/DG44 cells (other)
chain: ANSLLEETKQGNLERECIEELCNKEEAREVFENDPETDYFYPKYLVCLRSFQTGLFTAARQSTNAYPDLRSCVNAIPDQCSPLPCNEDGYMSCKDGKASFTCTCKPGWQGEKCEFDINECKDPSNINGGCSQICDNTPGSYHCSCKNGFVMLSNKKDCKDVDECSLKPSICGTAVCKNIPGDFECECPEGYRYNLKSKSCEDIDECSENMCAQLCVNYPGGYTCYCDGKKGFKLAQDQKSCEVVSVCLPLNLDTKYELLYLAEQFAGVVLYLKFRLPEISRFSAEFDFRTYDSEGVILYAESIDHSAWLLIALRGGKIEVQLKNEHTSKITTGGDVINNGLWNMVSVEELEHSISIKIAKEAVMDINKPGPLFKPENGLLETKVYFAGFPRKVESELIKPINPRLDGCIRSWNLMKQGASGIKEIIQEKQNKHCLVTVEKGSYYPGSGIAQFHIDYNNVSSAEGWHVNVTLNIRPSTGTGVMLALVSGNNTVPFAVSLVDSTSEKSQDILLSVENTVIYRIQALSLCSDQQSHLEFRVNRNNLELSTPLKIETISHEDLQRQLAVLDKAMKAKVATYLGGLPDVPFSATPVNAFYNGCMEVNINGVQLDLDEAISKHNDIRAHSCPSVWKKTKNS
modifications: gamma-carboxylated glutamic acid (Gla) in the Gla domain; complex type N-glycoside-linked sugar chains with fucose (Fuc 0.69 per Man 3.00)
notes: It differs from MSPS only in glycosylation (highest core fucose ratio)
Consider B4, for which, in experiment [6], the Kd amounted to 81 nM. This lies in the double-digit nanomolar range.
